According to US20100329990:

Target: TTE (TBF-EGFP fusion with the TEV protease recognition sequence ENLYFQG, flanked by 4 glycines on each side, between TBF and EGFP)

B1: TEV protease (Gibco-Life Technologies) (protein)
chain: GESLFKGPRDYNPISSTICHLTNESDGHTTSLYGIGFGPFIITNKHLFRRNNGTLLVQSLHGVFKVKNTTTLQQHLIDGRDMIIIRMPKDFPPFPQKLKFREPQREERICLVTTNFQTKSMSSMVSDTSCTFPSSDGIFWKHWIQTKDGQCGSPLVSTRDGFIVGIHSASNFTNTNNYFTSVPKNFMELLTNQEAQQWVSGWRLNADSVLWGGHKVFMSKPEEPFQPVKEATQLMNELVYSQ
- cleavage of TTE by TEV protease, followed by time-gated emission spectra (loss of Tb3+ to EGFP energy transfer): The absence of the chromophore peak at 510 nm indicates that the energy transfer system from Tb^3+ to the chromophore is diminished.
